Assay results taken from IntAct's records for PubMed 21743457.

B1: Cell division control protein 13 (Saccharomyces cerevisiae), P32797 (parent)
chain: MDTLEEPECPPHKNRIFVSSSKDFEGYPSKAIVPVQFVALLTSIHLTETKCLLGFSNFERRGDQSQEDQYLIKLKFKDRGSERLARITISLLCQYFDIELPDLDSDSGASPTVILRDIHLERLCFSSCKALYVSKHGNYTLFLEDIKPLDLVSVISTISTKSTNSSKHSSSELISECDLNNSLVDIFNNLIEMNRDEKNRFKFVKLIHYDIELKKFVQDQQKVLSQKSKAAAINPFFVPNRLGIPYIESQNEFNSQLMTLNVDEPTTDISNMGEEMHDSADPIEDSDSSTTSSTGKYFSSKSYIQSQTPERKTSVPNNWHDDDSGSKRKRKLSFHSPNASSIRKAISYEQLSLASVGSVERLEGKIVGMNPPQFASINEFKYCTLKLYFTQLLPNVPDKVLVPGVNCIEIVIPTRERICELFGVLNCQSDKISDILLLEKPDRISVEVERILWDNDKTASPGMAVWSLKNISTDTQAQAQVQVPAQSSASIDPSRTRMSKMARKDPTIEFCQLGLDTFETKYITMFGMLVSCSFDKPAFISFVFSDFTKNDIVQNYLYDRYLIDYENKLELNEGFKAIMYKNQFETFDSKLRKIFNNGLRDLQNGRDENLSQYGIVCKMNIKVKMYNGKLNAIVRECEPVPHSQISSIASPSQCEHLRLFYQRAFKRIGESAISRYFEEYRRFFPIHRNGSHLAKLRFDEVKHEPKKSPTTPALAEHIPDLNADVSSFDVKFTDISSLLDSSARLPRPQQTHKSNTLYSCEGRIIAIEYHASDLCFHITNELPLLQTRGLAPERVLQLHIITSKNFAYFFNRSSAYLQRQPLEEKYTQLAQFLGHSFKFNITSSLTLFPDTTVALQIWCPIECTFRELQQQLAHPKVAAAPDSGSLDCAINATVNPLRLLAAQNGVTVKKEEDNDDDAGAVPTS
B2: Cell division control protein 13 (Saccharomyces cerevisiae), P32797 (parent)
chain: B1 chain
partner: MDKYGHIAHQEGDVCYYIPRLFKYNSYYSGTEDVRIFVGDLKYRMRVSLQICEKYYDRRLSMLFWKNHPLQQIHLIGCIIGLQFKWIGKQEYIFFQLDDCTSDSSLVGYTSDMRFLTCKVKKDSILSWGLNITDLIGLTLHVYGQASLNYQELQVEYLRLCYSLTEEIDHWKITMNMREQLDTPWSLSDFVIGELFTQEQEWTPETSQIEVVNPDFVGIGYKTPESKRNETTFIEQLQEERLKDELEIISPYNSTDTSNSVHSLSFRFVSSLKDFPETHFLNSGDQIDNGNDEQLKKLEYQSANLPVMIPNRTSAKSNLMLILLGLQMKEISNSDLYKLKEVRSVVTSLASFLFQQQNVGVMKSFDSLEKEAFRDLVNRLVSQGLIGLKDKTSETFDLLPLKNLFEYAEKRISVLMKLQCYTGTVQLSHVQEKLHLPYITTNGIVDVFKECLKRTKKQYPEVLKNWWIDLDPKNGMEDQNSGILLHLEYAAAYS

Variants of: B1
Details: with smt3_yeast SMT3, Q12306
Chain of smt3_yeast SMT3, Q12306 (Q12306 whole entry): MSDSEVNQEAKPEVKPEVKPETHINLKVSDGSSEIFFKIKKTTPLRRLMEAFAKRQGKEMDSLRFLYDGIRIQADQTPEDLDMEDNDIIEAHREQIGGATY

Variant	effect of a mutation on the interaction
K909R	disrupting interaction

Variants of: B2
Details: with stn1_yeast STN1, P38960

Variant	effect of a mutation on the interaction
K909R	decreasing interaction
